This is an account of results in the supplement of paper PMC12636428.

Where only a bound is given, the exact number is not on record here.

The test system of the data set is Saccharomyces cerevisiae. As to the kind of experiment: transcriptional activation domain activity (GFP:mCherry ratio, weighted mean of sorted bins, harmonized to initial dataset scale) (arbitrary fluorescence ratio units); higher = stronger transcriptional activation. The note with it: beta-estradiol 1 µM; induction time 4 h. In short, it runs like this:
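Each value is an activation activity: the read-weighted mean of bin median fluorescence, averaged across barcodes, then mapped linearly to the initial dataset scale. The tiles, fused to an estradiol-inducible synthetic transcription factor, sat at the yeast URA3 locus in GFP-reporter diploids. Cells spent 4 hours at 30 °C in SC with 1 uM beta-estradiol before sorting into 8 GFP:mCherry bins, and tiles below 50 reads were removed.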

For the sequence “GILPPLLLAIVFGVLPFILRGLAWYECVPRYSLMSISVYRRFYLFLLIHGFLI”, the “transcriptional activation domain activity” value was found to be 51900.

Consider “GILRYCKIWLAWVQIHFGVHFFVLTIWYRMWNLHRLVVQQKLLSGWSYYLPII”, for which the “transcriptional activation domain activity” value was found to be 36800. In the case of “GILVLLLVYSNLVLLIYHPPTSKRPLDHLFIHVPIRLFLILPLSLMFPYSLLY” it was 43900. The value for “GIMILCCTLVVLTRLMGHRILPYTYFTSCLLMQIDFILGMIWDMDPFKVRRFC” was 44600; that for “GIPDELAWMLCLDGLDCIDGETYNLPLLRQFMELFPSLPLTSLLTAYFLYMDI” was 119000; that for “GIPVKAYPPNGVYPFSGLSCYAMIVSFLHSELDMVYMTFRELYARYFHHLHTI” was 70500. With “GISHNQLSNDDVLLNPSDTGFSPTDNGDGDDGEPHSTLRMAWLLTRVLEHAPL”, the “transcriptional activation domain activity” value was determined as 46600.

Turning to “GIVLLLNAWKGQKIGFVSKDLNLVYSCIRIANEAEERHIAAGRYVDFMNLLLH”, the “transcriptional activation domain activity” value is 45500.

Take “GIYAFGKMYFIPYLLSNHWVVMLTYLQHSDPTIPVYRRGQWSFVRGALSTIDR”: the “transcriptional activation domain activity” value turned out to be 41800.

Consider “GKADKKETANGKSTDSKTAGGNANSTARKRKTSNASVQDQKAAKATTTAASRK”, for which the “transcriptional activation domain activity” value was 27600.

“GKAKASKTAGAGLAKASKAPKVPKAGGKGAKASKGAKAPKASKAAGAAGAKAS”: the “transcriptional activation domain activity” value worked out at 28400. The value for “GKDAEAADKPIEGKDAGDVEMNDAPEKEPEAEAAKPKGRGGRPKKVVPAAAAP” was 23900; that for “GKEKKDGEAAAPAAANHAPAEASAPAQTSSRPEGGERGRGRGRGHKGERGGAG” was 43200. The value for “GKEKNHGRGERNGERTKAKGEGRGEEDSQRRGRRRESKERGRRRGGEPEETKG” was 49600; that for “GKEVVDIQEAEVEEGGVKREKVRVVFKDGTDAVGDLVVGCDGARSRARECIVG” was 45700; that for “GKFLTVLLALSVMGSVAATSVAIFSFNNIRSNVYSFYSISLNMQILMPVLVYV” was 41200. As to “GKGEEEVEEEERLYDRLVIANGHYRVPFVPPLPGLAAWQRAGRATHAAWYRAA”, the “transcriptional activation domain activity” value amounted to 59800. As for “GKGEKDSKDNEKGEGEKKGENRRGRRRGGRGRGGGGDKDKENNKDGGGGRGEK”, the “transcriptional activation domain activity” value amounted to 30500.

With “GKGHYVTFSFVMADIILGMSAPMLRICVCHCVPQRQRKSNIILLQIILLFYER”, the “transcriptional activation domain activity” value was 54500. Consider “GKGIGGFNCVAASLGVVQVGMQWSCFAVILLLFLIYFPSASSLGSPATTPTGT”, for which the “transcriptional activation domain activity” value is 36400.

“GKGKPRDNAKEEEKEEERKIPQAIVVSGLHHASTAAQLALSSALREGEIEMDG”: the “transcriptional activation domain activity” value turned out to be 15000. With “GKGKRKAVSEEEDKDEEGDEEPVKAKGKGKGKGKRKVVAKKVKRRAPAAADTS”, the “transcriptional activation domain activity” value was under 6570. In the case of “GKISKDYHHVPSLASISSLQSSQSLDQNFSIPQSPPLSSMSFNFLTGNINETN”, the “transcriptional activation domain activity” value was determined as 43600. Turning to “GKKDQEALKEGESSSESASASASKSSSSTKSSKGSKSSSAAAAEASDDGKPKK”, the “transcriptional activation domain activity” value was 38600. With “GKKGPGGRKGPGGRKGPGGRGGRAGGPKGRGGKGGKGMRPGAGAPPPPPPIAA”, the “transcriptional activation domain activity” value amounted to 52600. The value for “GKKGSSGAKKGGKKGSSTGAKEEVAKKPSIEKSGEKKSEGGEKKENDEKKNDK” was 37900.

As to “GKKKGKRGKGKGKRGRGKGRGEREGWQGKAAGKEGAGKKGAGEGEQGKGSRGK”, the “transcriptional activation domain activity” value worked out at 44300. Consider “GKKKKAKKAEVRKARAKASDRAKAKAKAAGPSRASKKAAAPARAKSGDGGKDK”, for which the “transcriptional activation domain activity” value was found to be 21600.

For the sequence “GKKRKSTGAKSREQPKAKRIAKAKTKTGAFGAGRKGATAGHAKGRAAAAGPKA”, the “transcriptional activation domain activity” value was determined as 59000. “GKKRRRSSSSSSSSSGSSSSGSSSSSGSDSESDSSSDSSSSSSNSSRSSGSRS”: the “transcriptional activation domain activity” value came to 24900. The value for “GKKSSGKKSGSSKKTKKDKKAEKDKTAADEKEKEEVKEKETGAEGEKTPEHSE” was 37700; that for “GKPAASAFGGGSSAFGAGSGAFGGGGGGGPSAFGAPASKPSAFGTGGAFGGGA” was 51100. Take “GKPGGGEAKTGERKGEGRGGRGKGGPGGKKDGPPPGEGKGAVVASAASTSATP”: the “transcriptional activation domain activity” value was found to be 34700. In the case of “GKPRGYAFVEYEREKDMKAAYKEGDGMKITGRRVVVDVERGRTVKGWKPRRLG” it was 36700; in that of “GKPRKRLAQACLTCREKKIKCDPGSPKCAQCQKSHRICRGTGSVASSGGPVGV”, 19000. On to “GKPRKRLAQACLTCREKKIKCEPGYPKCHQCAKSQRVCRGGLNQASIGNASGE”, for which the “transcriptional activation domain activity” value was determined as 36100. Turning to “GKPVALRTSTRVKDVSGDGIVTLESGEQISADVVVGADGVHSRTRYAIPGSAG”, the “transcriptional activation domain activity” value was 52400. As to “GKPVIKISSFAPKLTVISSKQRPRRLSIKGSDGKDYQFLLKGHEDLRQDERVM”, the “transcriptional activation domain activity” value was found to be 58400. Regarding “GKRAGAKGKKEASKKKKSQGSSRKGSGKGKKGNGGKGKNGGGKDKGKKSGKKG”, the “transcriptional activation domain activity” value stood at 21800. For the sequence “GKRAREESDEENDEEEEAEGEGAEKEGEEEEEEEEVKKPAAKRARTAKGAAAK”, the “transcriptional activation domain activity” value came to 13500. The value for “GKRARGVGKLRPSVVLYNELHKDGEGVGEVARRDLVGSSKGKGRSGVDTLLVV” was 59800. In the case of “GKRGSRGRGRGKGGKKKGKGREGAEEGEGGSRGRGEGGGKTGEGGRESRRRGE” it was 37600; in that of “GKRNSGAGGASAKAKARGAGKKPAAAGGKAGKKNVRAAKSKGKAAGARTKPAA”, 43900; in that of “GKRRFLNGFLSCLLPTCGISDPLLRYAACFTVIRCCFRSNVLVPAMMRALLET”, 45100. As to “GKSKEERERDEEVIRKWSGKPTKVMLQVFDDCSLSFTRPAKLMYRSIAHFSLW”, the “transcriptional activation domain activity” value worked out at 65100. The value for “GKTYTLEQDEDVLDTWFSSGLWPFSTLGWPNQTHDLENLFPTDVLETGWDILF” was 126000. For “GKVFILLRIWFFRQRSLSLYRTLLSSYLVERSPLFTSTMGVFGLDRKLLVKTA”, the “transcriptional activation domain activity” value amounted to 62500. As to “GKVPRRTERRKLWDDVKALRKELIDILLFSPLSLADIHFRYRKREGGVVNYYL”, the “transcriptional activation domain activity” value is 21800.

On to “GLAELAAALDDSDVQYAYARVEYANDAESKRVKFVLIVWIGSGTKVMRKGRAG”, for which the “transcriptional activation domain activity” value turned out to be 42200. For “GLAIIRWQRGFRDYDNVTFKRFDYEVGMSILGWAFHYFPFFLMARQLFLHHYL”, the “transcriptional activation domain activity” value worked out at 52400. In the case of “GLANYLKPVHDQKLIIFIEILILLWAVLVYSTVQVARGATGFYLPTVLYNIYL” it was 49300. In the case of “GLCLLYISGLVCATIVCYIEFTMHQSALLNATRLTPFMIAALCLTLFLNIIAT” it was 57200; in that of “GLCRSGELLLPGAQYHRNPAVRKAWPGIFKWTRRNAMDVIATVWFWLTRADGL”, 51100. In the case of “GLCYCHSIKLRHLLIPMEKLYLMGLILVQCYNGVLHSMLFGARYEFLPLMLTS” it was 71000; in that of “GLDCDKQHVRECPDFAERGTCATRGCKLPHVIRANRNRKAPAPAAQKSTSTST”, 25500. For the sequence “GLEFVEPWTELIEQRYMQCGDGDNNNFENLYNLFVNSNNINNDINNSRPITRK”, the “transcriptional activation domain activity” value was determined as 81200.

“GLFASCWQRFAQAYRPCIGLTRIFVLCLLEVVLWLKGLEILFWFFLWCWCTTT”: the “transcriptional activation domain activity” value amounted to 50200. The value for “GLFLVFGFWYIGVCSYGFLGFSLSLGGVYIRFFLYYHYQRILRLISLPFPVWF” was 59700. In the case of “GLFRVAGRVLHVNRLNDDFDAGADYDLRKATPADLDPHVVASVLKSYLRTLRG” it was 27100; in that of “GLGFFFSFSLFNFFLHASSLYLLFLVTLLDLHYIFLVLSLTLFRVYVCFISAP”, 43400. With “GLGKEGESYIVAMGAVSGGIIIYRRIEGGAGLVEVVRNSTAVARTTAVMIALE”, the “transcriptional activation domain activity” value was determined as 42400.

As for “GLHFERRLFHLLFSTVCISICFCLLVFNLLIQNYMKKADQKEGMAAFAEKRKP”, the “transcriptional activation domain activity” value is 28000. The value for “GLKLSPSSSGLLSTNESNAIEQFLDNLISQDMMSSNASMNSESHLHIRSPKKQ” was 68400. In the case of “GLKRLAMLLRRMLSEKDLIFVFKGLQFLKYWTLSAEEIHTHARYWRRAWKILS” it was 52400; in that of “GLLCWIAIRKLGIIGLYVYMDDFFGWDFLDNLIFYRGMRRPRRQVLLLILWEF”, 50700; in that of “GLLKIVVILPVTDVPLPPYRVTPMFLGGMRDLVTHLLRRTSTILTCDRLWYLW”, 28400.

Take “GLLSSCVLIVLVIHHPFLLSDNRHYTFYIWRRVYMFHPIVPYALIPAYLACAW”: the “transcriptional activation domain activity” value was 66700.

For “GLLYILFCYQMNLKTHSLKVIALAEESVRLVHDRQSKRLWLPSITWKKWFRTG”, the “transcriptional activation domain activity” value worked out at 74800. The value for “GLMGALGFRMLFGVPCLPFFALHWFLWLVNDYILYCVLVQTNRISSIHFLRAW” was 41200. Regarding “GLNLPKISASYLCQYRGSLIGKHFKAIVQLMCFLCYDLLPAPLLNAWLILGRL”, the “transcriptional activation domain activity” value is 70900. In the case of “GLNPLRTTLMMSLNIIRSLFPAFRGYSQALIVDELQSLIASESFTWSRLLWLM” it was 57900; in that of “GLPVVLVLVFFGLPTTGFLVFFPADFLVVFFAFLATFLKVVFKGFFAFLLFFP”, 74300. In the case of “GLQGQYNAYSTKHNINVPHGDILVFSLACGQIMYAWLMRPDTLPISYSNWICN” it was 39300; in that of “GLRDNVIENRQGKKGAGKAAAAGGAGAAAANTNAATGGKAAKAAKAAAAGGSG”, 48900.
